# Test results: patent publication US20250002564A1 (HOSPITAL FOR SICK CHILDREN, published 2025)
# Where two headings read alike, the source gives them in different places.
# Assays:
# [1] = biological target: T1, SARS-CoV-2 receptor binding domain (RBD), wild type, His-tagged (SARS-CoV-2, UniProt P0DTC2 319-541); test: method and format not given
# T1 construct: domain: RBD; also called His-tagged RBD; BEI NR52309
# [2] = biological target: T1, SARS-CoV-2 receptor binding domain …; test: BLI competition on His-tagged RBD, after 1st Ab 298
# [3] = biological target: T1, SARS-CoV-2 receptor binding domain …; test: BLI competition on His-tagged RBD, after 1st Ab 82
# [4] = biological target: T1, SARS-CoV-2 receptor binding domain …; test: BLI competition on His-tagged RBD, after 1st Ab 324
# [5] = biological target: T1, SARS-CoV-2 receptor binding domain …; test: BLI competition on His-tagged RBD, after 1st Ab 236
# [6] = biological target: T1, SARS-CoV-2 receptor binding domain …; test: method and format not given; remark: listed apart in the source
# [7] = biological target: T1, SARS-CoV-2 receptor binding domain …; test: BLI competition on His-tagged RBD, after 1st Ab 80
# [8] = biological target: T1, SARS-CoV-2 receptor binding domain …; test: BLI competition on His-tagged RBD, after 1st Ab 52
# [9] = biological target: T2, SARS-CoV-2 RBD mutant L452R (SARS-CoV-2, UniProt P0DTC2 319-541); test: BLI, IgG on mutated RBD compared with WT RBD; negative = decreased
# T2 construct: domain: RBD; also called mutated RBD L452R
# [10] = biological target: T1, SARS-CoV-2 receptor binding domain …; test: BLI competition on His-tagged RBD, after 1st Ab 46
binder,measurement,setting,value
"mAb 236 (antibody, V domains shown, also called IgG 236; Antibody 236) VH: QVQLVQSGAEVKKPGASVKVSCKASGGTFTSYGINWVRQAPGQGLEWMGWMNPNSGNTGYAQKFQGRVTMTRDTSTSTVYMELSSLRSEDTAVYYCASRGIQLLPRGMDVWGQGTTVTVSS VL: not shown",Kd,[1],145 nM
same,RBD binding of 2nd Ab after 1st Ab (heat map),[2],0.2
same,RBD binding of 2nd Ab after 1st Ab (heat map),[3],0.2
same,RBD binding of 2nd Ab after 1st Ab (heat map),[4],0.4
same,RBD binding of 2nd Ab after 1st Ab (heat map),[5],0.3
same,Kd,[6],145 nM
same,RBD binding of 2nd Ab after 1st Ab (heat map),[7],0.1
same,RBD binding of 2nd Ab after 1st Ab (heat map),[8],1
same,Affinity change vs WT RBD (fold-change),[9],-4.1
same,RBD binding of 2nd Ab after 1st Ab (heat map),[10],1.2
